Results: patent US8597509B2, “Countercurrent chromatography rotor” (CC Biotech LLC, priority 2008, dated 2013)

Assay: Partition coefficient K in two-phase aqueous system PEG (1000) 12.5%-K2HPO4 12.5%
Type: physicochemical
Settings: PEG (MW 1000) 12.5%-K2HPO4 12.5% two-phase aqueous solvent system
Text: A determination of the partition coefficient, K, is made by dissolving a small sample into a solvent system, shaking the mixture, and measuring the concentration of the sample in both phases after separation of the phases. That provides the ratio of concentration in the upper to lower phase (Cu/Cl). The phase chosen as the mobile phase is that giving a partition coefficient of 1 to 2. The efficiency of a separation will be determined by use of the conventional gas chromatographic equation: N=(4R/W)^2. The theoretical plates or N is calculated from the shape of the peaks. R is the retention time or volume of the peak maximum and W is the peak width expressed in the same units as R. For preparative separations, the values of N may be up to 1000, but the more important relationship is resolution. Resolution between adjacent peaks is given by: RS=2(VR,2−VR,1)/(W1+W2). Using that equation and substituting each solute retention volume by the following: VR=Vm+KVS. The Vm term cancels giving: RS=2(K2−K1)Vs/(W1+W2).
The apparatus of interest can be used to separate proteins or other large molecules. In this example, the spiral tube support was made as described above and used to purify mouse uteroglobin. Mouse uteroglobin has a MW of […] and normally exists as a dimer; but, in solution, a monomeric form of the protein can also accumulate. A separation was made in the spiral tube support to separate uteroglobin monomers from uteroglobin dimers. This was done by measuring the K value using HPLC and then separating the protein using countercurrent chromatography with the spiral tube support apparatus. […] The heights of the peaks representing the monomer at 31.5 min. and dimer at 32.8 min. HPLC retention time, respectively, were measured and the ratios give different values for the concentration in the upper phase over that of the lower phase. The two protein peaks calculated to K values of 4.0 and 6.9 in PEG (1000) 12.5%-K2HPO4 12.5%. The different K values mean that the two species could be separated with one or the other phase mobile. Since the numeric value is over two, the analyte would remain in the coil a long time, ultimately being eluted in approximately four to seven column volumes. Consequently, a run was performed for two column volumes and then the contents of the column were extruded and analyzed.
In this example, 31 mg lysozyme (14.4 kDa) and 24 mg myoglobin (17.7 kDa) were mixed and separated using the countercurrent chromatography apparatus and methods of use as claimed. A non-denaturing two-phase aqueous solvent system consisting of 12.5% PEG (MW 1000):12.5% K2HPO4 provides for a polyethylene-rich upper phase and phosphate buffer-rich lower phase. The lower phase was used as the mobile phase at a flow rate of 1 ml/min. […]

Row | Substance | K value (concentration in upper phase over lower phase)
1 | myoglobin | 0.38
2 | uteroglobin monomer: monomeric form of mouse uteroglobin protein | 4.0
3 | uteroglobin dimer: dimeric form of mouse uteroglobin protein | 6.9
4 | lysozyme | 1.35
